Measurements taken from publication PMC5586147 (Nature, 2017).

Target: human pro-TGF-β1 (C4S, R249A furin-site mutant, N107Q, N147Q), purified (human)
Test: crystal structure

B1: integrin αVβ6 head (three-domain fragment: αV β-propeller and thigh domains, β6 βI domain) (complex)
chain 1: FNLDVDSPAEYSGPEGSYFGFAVDFFVPSASSRMFLLVGAPKANTTQPGIVEGGQVLKCDWSSTRRCQPIEFDATGNRDYAKDDPLEFKSHQWFGASVRSKQDKILACAPLYHWRTEMKQEREPVGTCFLQDGTKTVEYAPCRSQDIDADGQGFCQGGFSIDFTKADRVLLGGPGSFYWQGQLISDQVAEIVSKYDPNVYSIKYNNQLATRTAQAIFDDSYLGYSVAVGDFNGDGIDDFVSGVPRAARTLGMVYIYDGKNMSSLYNFTGEQMAAYFGFSVAATDINGDDYADVFIGAPLFMDRGSDGKLQEVGQVSVSLQRASGDFQTTKLNGFEVFARFGSAIAPLGDLDQDGFNDIAIAAPYGGEDKKGIVYIFNGRSTGLNAVPSQILEGQWAARSGCPPSFGYSMKGATDIDKNGYPDLIVGAFGVDRAILYRARPVITVNAGLEVYPSILNQDNKTCSLPGTALKVSCFNVRFCLKADGKGVLPRKLNFQVELLLDKLKQKGAIRRALFLYSRSPSHSKNMTISRGGLMQCEELIAYLRDESEFRDKLTPITIFMEYRLDYRTAADTTGLQPILNQFTPANISRQAHILLD
chain 2: TEDYPVDLYYLMDLSASMDDDLNTIKELGSRLSKEMSKLTSNFRLGFGSFVEKPVSPFVKTTPEEIANPCSSIPYFCLPTFGFKHILPLTNDAERFNEIVKNQKISANIDTPEGGFDAIMQAAVCKEKIGWRNDSLHLLVFVSDADSHFGMDSKLAGIVCPNDGLCHLDSKNEYSMSTVLEYPTIGQLIDKLVQNNVLLIFAVTQEQVHLYENYAKLIPGATVGLLQKDSGNILQLIISAYEELRSEVELE
B1 was tested, and the “stoichiometry N” value was 1 αVβ6 head per pro-TGF-β1 dimer.
